Here are results for one molecule from PMC5840378.

The assay deals with T1, 14-3-3ε full length (14-3-3ε FL), recombinant, P62258.
T1 chain: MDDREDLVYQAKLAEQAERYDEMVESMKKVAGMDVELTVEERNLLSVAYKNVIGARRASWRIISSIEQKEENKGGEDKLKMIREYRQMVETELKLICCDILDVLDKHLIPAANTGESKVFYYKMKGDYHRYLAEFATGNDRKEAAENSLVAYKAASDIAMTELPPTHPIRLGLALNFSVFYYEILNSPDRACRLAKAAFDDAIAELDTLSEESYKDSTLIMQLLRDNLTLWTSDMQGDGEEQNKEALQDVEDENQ
In words: AUC + other: dynamic light scattering; sedimentation velocity, 20 °C, 45,000 r.p.m., 37 μM, 5 mM sodium phosphate pH 6.3; DLS at 0.1 mg/mL, 25 °C, same buffer. To be noted: remark: other sources report otherwise.

B1: 14-3-3ε full length (14-3-3ε FL), recombinant, P62258 1-255 (natural protein)
chain: T1 chain
On to B1, for which the stoichiometry N came out at 2.

For orientation: stoichiometry N means the number of molecules, sites or subunits per partner or assembly.
